Paper PMC7145699, “Structural insights into target DNA recognition by R2R3-MYB transcription factors”

Legend:
WER 12-130 (WER-R2R3) [1] = target: T1, WER 12-130 (WER-R2R3) (Arabidopsis, UniProt Q9SEI0 12-130); assay: ITC; ITC: 150 mM NaCl, 20 mM HEPES pH 7.5, 25 C, 400 uM protein into 20 uM DNA; EMSA: 150 mM NaCl, 20 mM Tris-HCl pH 8.0, on ice 1 h, 0.1 uM DNA, 6% native PAGE 0.5x TBE; conditions: protein: recombinant; tags: 6xHis-SUMO removed by Ulp1; blunt
T1 sequence: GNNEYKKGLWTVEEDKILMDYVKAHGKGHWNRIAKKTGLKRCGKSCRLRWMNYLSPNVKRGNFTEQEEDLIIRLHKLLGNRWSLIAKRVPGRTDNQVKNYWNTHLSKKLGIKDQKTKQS

WER 12-130 (WER-R2R3) [2] = target: T1, WER 12-130 (WER-R2R3); assay: crystal structure (2.15 A); ITC: 150 mM NaCl, 20 mM HEPES pH 7.5, 25 C, 400 uM protein into 20 uM DNA; EMSA: 150 mM NaCl, 20 mM Tris-HCl pH 8.0, on ice 1 h, 0.1 uM DNA, 6% native PAGE 0.5x TBE; conditions: protein: recombinant; tags: 6xHis-SUMO removed by Ulp1; 5' overhang 1 nt at both ends
WER 12-130 (WER-R2R3) [3] = target: T1, WER 12-130 (WER-R2R3); assay: ITC; ITC: 150 mM NaCl, 20 mM HEPES pH 7.5, 25 C, 400 uM protein into 20 uM DNA; EMSA: 150 mM NaCl, 20 mM Tris-HCl pH 8.0, on ice 1 h, 0.1 uM DNA, 6% native PAGE 0.5x TBE; conditions: protein: recombinant; tags: 6xHis-SUMO removed by Ulp1; blunt; remark: listed apart in the source
WER 12-130 (WER-R2R3) [4] = target: T1, WER 12-130 (WER-R2R3); assay: as above; conditions: protein: recombinant; tags: 6xHis-SUMO removed by Ulp1; blunt; remark: listed apart in the source

B1: 6mA10 DNA (6mAAC) (dsDNA)
DNA 1: AAATTCTCCAACCGCATTTTC
DNA 2: GAAAATGCGGTTGGAGAATTT
modifications: 6mA at A10 of strand 1
- binding signal (WER 12-130 (WER-R2R3) [1]): 12 fold decrease in affinity vs N1

B2: crystal DNA (dsDNA)
DNA 1: AAATTCTCCAACCGCATTTTC
DNA 2: CGAAAATGCGGTTGGAGAATT
- binding result (WER 12-130 (WER-R2R3) [2]): binds

B3: T14:A9* (dsDNA)
DNA 1: AAATTCTCCAACCTCATTTTC
DNA 2: GAAAATGAGGTTGGAGAATTT
- binding result (WER 12-130 (WER-R2R3) [3]): binds

B4: C14:G9* (dsDNA)
DNA 1: AAATTCTCCAACCCCATTTTC
DNA 2: GAAAATGGGGTTGGAGAATTT
- binding signal (WER 12-130 (WER-R2R3) [4]): 40 fold decrease in affinity vs N1

B5: 6mA11 DNA (A6mAC) (dsDNA)
DNA 1: AAATTCTCCAACCGCATTTTC
DNA 2: GAAAATGCGGTTGGAGAATTT
modifications: 6mA at A11 of strand 1
- binding signal (WER 12-130 (WER-R2R3) [1]): 5 fold decrease in affinity vs N1

B6: A12:T11* (dsDNA)
DNA 1: AAATTCTCCAAACGCATTTTC
DNA 2: GAAAATGCGTTTGGAGAATTT
- Kd (WER 12-130 (WER-R2R3) [3]): 2590 nM

B7: 6mA10,6mA11 DNA (6mA6mAC) (dsDNA)
DNA 1: AAATTCTCCAACCGCATTTTC
DNA 2: GAAAATGCGGTTGGAGAATTT
modifications: 6mA at A10 and A11 of strand 1
- binding signal (WER 12-130 (WER-R2R3) [1]): > 20 fold decrease in affinity vs N1

B8: GL2 promoter WER target DNA (dsDNA)
DNA 1: AAATTCTCCAACCGCATTTTC
DNA 2: GAAAATGCGGTTGGAGAATTT
- Kd (WER 12-130 (WER-R2R3) [3]): ~51 nM

B9: A14:T9* (dsDNA)
DNA 1: AAATTCTCCAACCACATTTTC
DNA 2: GAAAATGTGGTTGGAGAATTT
- binding result (WER 12-130 (WER-R2R3) [3]): binds

B10: C10:G13* (dsDNA)
DNA 1: AAATTCTCCCACCGCATTTTC
DNA 2: GAAAATGCGGTGGGAGAATTT
- Kd (WER 12-130 (WER-R2R3) [3]): 2000 nM

B11: 5mC12 DNA (AA5mC) (dsDNA)
DNA 1: AAATTCTCCAACCGCATTTTC
DNA 2: GAAAATGCGGTTGGAGAATTT
modifications: 5mC at C12 of strand 1
- Kd (WER 12-130 (WER-R2R3) [3]): 2340 nM
